Residue numbers refer to the chain shown, from its start.
Tests used:
[1] = biological target: T1, human ALPPL2 on tumor cells (M28, SKOV3, AsPC1) (human, UniProt P10696 20-503); assay: cell-based or functional assay
ALPP on HEK293 cells = ALPP on HEK293 cells (UniProt P05187 23-506, limits assumed); assay: cell-based or functional assay
[2] = biological target: T1, human ALPPL2 on tumor cells (M28, …); assay: apparent KD, flow cytometry on living SKOV3 cells
Procedure: FIG. 16. Binding of the SYLY-based bispecific (DSDbody) to living SKOV3 cells. SKOV3 cells were incubated with Fabs for 1 h at RT and binding was analyzed by flow cytometry. […] There is no binding by the control bispecific YSC10×CD3 DSDbody that is built on a non-binding isotype control antibody YSC10.
In addition to mesothelioma cells, binding of the SYLY-based bispecific ALPPL2×CD3 DSDbody was also studied on the ovarian cancer cell line SKOV3. […] No binding was detected by the control bispecific YSC10×CD3 that is built on a non-binding isotype control antibody YSC10. For comparison, a reference DSDbody constructed from the parental FYIA was also studied on SKOV3 cells using flow cytometry.

human ALPPL2-Fc [3] = biological target: T2, human ALPPL2-Fc (human, UniProt P10696 20-503); assay: biolayer interferometry, tips loaded with human ALPPL2-Fc, 100 nM DSDbody as analyte
T2 construct: also called ALPG; not shown: Fc part not described
Procedure: (§1) FIG. 12. Binding of SYLY×CD3 DSDbody to human ALPP2 and ALPI measured by biolayer interferometry. Tips were loaded with either human ALPPL2-Fc or human ALPI-Fc, followed by an association step with 100 nM SYLY×CD3 DSDbody and then a dissociation step. Calculated affinites are shown in the graph. ND: not determined.
(§2) The DSDbody was also evaluated by biolayer interferometry for cross-species binding to both human and cynomolgus monkey CD3 epsilon chains.

human CD3 epsilon [4] = biological target: T3, human CD3 epsilon (human, UniProt P07766 23-126); assay: biolayer interferometry, tips loaded with human CD3 epsilon, 100 nM DSDbody as analyte
Procedure: (§3) FIG. 13. Binding of SYLY×CD3 DSDbody to human and cynomolgus monkey CD3 epsilon measured by biolayer interferometry. Tips were loaded with either human or cynomolgus monkey CD3 epsilon, followed by an association step with 100 nM SYLY×CD3 DSDbody and then a dissociation step.
as §2

[5] = biological target: T1, human ALPPL2 on tumor cells (M28, …); assay: apparent KD, flow cytometry on living M28 cells; M28 mesothelioma cells, flow cytometry
human ALPI-Fc = biological target: T4, human ALPI-Fc (human, UniProt P09923 20-503); assay: BLI; tips loaded with human ALPI-Fc, association with 100 nM SYLYxCD3 DSDbody, then dissociation
T4 construct: not shown: Fc part not described
T4 sequence (looked up): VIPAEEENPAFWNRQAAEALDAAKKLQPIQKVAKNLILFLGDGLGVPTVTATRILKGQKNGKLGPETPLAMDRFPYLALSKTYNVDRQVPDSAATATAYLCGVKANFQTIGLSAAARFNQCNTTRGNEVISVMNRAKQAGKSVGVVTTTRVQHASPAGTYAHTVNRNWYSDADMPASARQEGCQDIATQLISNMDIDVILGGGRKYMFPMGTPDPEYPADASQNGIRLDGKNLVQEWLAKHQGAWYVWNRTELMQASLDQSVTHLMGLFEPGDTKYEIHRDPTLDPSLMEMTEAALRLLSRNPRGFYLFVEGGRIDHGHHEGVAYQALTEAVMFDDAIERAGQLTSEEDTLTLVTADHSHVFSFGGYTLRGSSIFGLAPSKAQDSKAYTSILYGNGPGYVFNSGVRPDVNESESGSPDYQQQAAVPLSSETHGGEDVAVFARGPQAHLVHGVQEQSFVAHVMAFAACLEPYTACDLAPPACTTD
Procedure: as §1, §2

human ALPPL2-Fc [6] = biological target: T2, human ALPPL2-Fc; assay: BLI; tips loaded with human ALPPL2-Fc, association with 100 nM SYLYxCD3 DSDbody, then dissociation
Procedure: as §1, §2

human CD3 epsilon [7] = biological target: T3, human CD3 epsilon; assay: BLI; tips loaded with human CD3 epsilon, association with 100 nM SYLYxCD3 DSDbody, then dissociation
Procedure: as §3, §2

[8] = biological target: T1, human ALPPL2 on tumor cells (M28, …); assay: flow cytometry on AsPC1 cells, anti-hexahistidine detection, curve fit of MFI; AsPC1 pancreatic cancer cells, flow cytometry
Procedure: The bispecific (ALPPL2×CD3) SYLY DSDBody was incubated with AsPC1 cells at room temperature for 1 h, washed and further incubated with anti-tag (hexahistidine (SEQ ID NO: 102)) antibodies for detection by flow cytometry. […] See, FIG. 24.

[9] = biological target: T5, cynomolgus monkey CD3 epsilon (cynomolgus monkey, UniProt Q95LI5 22-117); assay: BLI; tips loaded with cynomolgus monkey CD3 epsilon, association with 100 nM SYLYxCD3 DSDbody, then dissociation
T5 sequence (looked up): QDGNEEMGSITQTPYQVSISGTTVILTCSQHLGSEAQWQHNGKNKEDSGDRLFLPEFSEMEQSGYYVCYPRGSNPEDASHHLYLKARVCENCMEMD
Procedure: as §3, §2

[10] = biological target: human ALPPL2 on tumor cells (M28, SKOV3, AsPC1) (human) (UniProt P10696); assay: apparent KD, flow cytometry, Fab on living M28 cells
[11] = biological target: T1, human ALPPL2 on tumor cells (M28, …); assay: as above
Procedure: (§4) FIG. 2. Binding of FYIA, FYIA_germ, and FYIA_germopt Fabs to living M28 cells. M28 cells were incubated with Fabs for 1 h at RT and binding was analyzed by flow cytometry.
FIG. 4. Additional Fabs (FYIA_germ_SY and FYIA_germ_6-6) were also studied along with FYIA, FYIA_germ, and FYIA_germopt Fabs for binding to living M28 cells. M28 cells were incubated with Fabs for 1 h at RT and binding was analyzed by flow cytometry.

human ALPPL2-Fc [12] = biological target: T2, human ALPPL2-Fc; assay: biolayer interferometry, tips loaded with Fab, 5 nM human ALPPL2-Fc as analyte
Procedure: FIG. 1. Biolayer interferometry (BLI) measurements of the affinity of FYIA, FYIA_germ, FYIA_germ_6-6, and FYIA_germopt (aka SYLY) Fabs for human ALPPL2. Tips were loaded with Fabs, followed by an association step with 5 nM human ALPPL2-Fc then a dissociation step.

[13] = biological target: T6, human ALPI on HEK293 cells (human, UniProt P09923 20-503); assay: flow cytometry on HEK293 cells stably transfected with human ALPI, 1 h at RT
T6 construct: whole, on cells; also called HEK293-ALPI cells
T6 sequence (looked up): T4 sequence (looked up)
Procedure: FIG. 3. Binding of FYIA, FYIA_germ, and FYIA_germopt Fabs to HEK293 cells stably transfected with human ALPI. HEK293-ALPI cells were incubated with Fabs for 1 h at RT and binding was analyzed by flow cytometry. No detectable binding was found. An ALPI-binding Fab, M25AD, was included in the study as a positive control.

[14] = biological target: T1, human ALPPL2 on tumor cells (M28, …); assay: cell binding study, monovalent Fab on M28 cells, flow cytometry
Procedure: as §4

T2 sequence (P10696 20-503): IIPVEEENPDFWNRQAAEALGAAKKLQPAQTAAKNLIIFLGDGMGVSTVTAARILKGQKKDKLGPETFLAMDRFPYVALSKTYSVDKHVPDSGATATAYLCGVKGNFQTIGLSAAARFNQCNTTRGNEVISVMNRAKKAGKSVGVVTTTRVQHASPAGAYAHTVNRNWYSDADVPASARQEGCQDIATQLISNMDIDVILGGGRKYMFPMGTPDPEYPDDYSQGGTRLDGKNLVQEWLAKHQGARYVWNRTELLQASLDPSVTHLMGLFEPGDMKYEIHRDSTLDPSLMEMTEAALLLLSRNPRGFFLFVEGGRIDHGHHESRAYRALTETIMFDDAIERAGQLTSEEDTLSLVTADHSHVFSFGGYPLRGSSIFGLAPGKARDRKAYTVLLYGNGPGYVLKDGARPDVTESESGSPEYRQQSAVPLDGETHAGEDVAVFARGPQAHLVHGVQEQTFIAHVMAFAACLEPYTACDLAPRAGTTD
T1 sequence (P10696 20-503): as above
T3 sequence (P07766 23-126 limits assumed): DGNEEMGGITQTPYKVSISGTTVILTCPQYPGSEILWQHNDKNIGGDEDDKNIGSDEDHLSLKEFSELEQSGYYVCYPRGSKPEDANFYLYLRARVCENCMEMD
Chain of human ALPPL2 on tumor cells (M28, SKOV3, AsPC1) (human) (P10696 20-503): as the sequence (P10696 20-503) above
Chain of ALPP on HEK293 cells (P05187 23-506 limits assumed): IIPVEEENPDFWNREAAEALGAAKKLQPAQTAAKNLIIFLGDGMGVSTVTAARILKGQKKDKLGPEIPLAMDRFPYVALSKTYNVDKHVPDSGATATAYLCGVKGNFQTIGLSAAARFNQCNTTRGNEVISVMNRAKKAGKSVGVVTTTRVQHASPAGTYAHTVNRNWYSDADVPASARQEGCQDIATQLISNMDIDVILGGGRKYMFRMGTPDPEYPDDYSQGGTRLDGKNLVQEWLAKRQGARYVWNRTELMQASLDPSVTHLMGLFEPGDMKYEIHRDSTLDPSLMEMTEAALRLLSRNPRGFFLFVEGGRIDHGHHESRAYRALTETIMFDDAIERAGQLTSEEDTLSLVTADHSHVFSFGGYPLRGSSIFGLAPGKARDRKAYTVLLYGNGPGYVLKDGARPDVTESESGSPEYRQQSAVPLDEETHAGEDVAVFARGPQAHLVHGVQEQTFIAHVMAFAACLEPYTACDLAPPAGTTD

B1: SYLY-based bispecific ALPPL2×CD3 DSDbody (bispecific antibody)
chain 1: EVQLVESGGGLVQPGGSLRLSCAASGFTFNTYAMNWVRQAPGKGLEWVGRIRSKYNNYATYYADSVKDRFTISRDDSKNSLYLQMNSLTACDTAVYYCVRHGNFGNSYVSWFAYWGQGTLVTVSSGGGGSQSALTQPASVSGSPGQSITISCTGTSSDVGGYNYVSWYQQHPGKAPKLMIYDVTYRPSGVSNRFSGSKSGNTASLTISGLQAEDEADYYCSSYTVATTLVVFGGGTKLTVLASTKGPSVFPLAPSSKSTSGGTAALGCLVKDYFPEPVTVSWNSGALTSGVHTFPAVLQSSGLYSLSSVVTVPSSSLGTQTYICNVNHKPSNTKVDKKVEPKSCHHHHHH
chain 2: EVQLVESGGGLVQPGGSLRLSCAASGFTFSAYAMHWVRQAPGKGLEWVAVISYEGYNAYYADSVKGRFTISRDNSKNTLYLQMNSLTACDTAVYYCAKEGDYSRWAYDYWGRGTLVTVSSGGGGSDIQMTQSPSSLSASVGDRVTITCRSSTGAVTTSNYANWVQQKPGKAPKGLIGGTNKRAPGVPSRFSGSLIGDKATLTISSLQPEDFATYYCALWYSNLWVFGQGTKVEIKRTVAAPSVFIFPPSDEQLKSGTASVVCLLNNFYPREAKVQWKVDNALQSGNSQESVTEQDSKDSTYSLSSTLTLSKADYEKHKVYACEVTHQGLSSPVTKSFNRGEC
notes: Dually stabilized diabody: inter-chain disulfide link and CH1/CL pairing; Anti-CD3 arm is humanized SP34 (hSP34k2); also called SYLY×CD3 DSDbody; SYLY DSDbody
B1 was tested, and the “EC50 of killing of SKOV3 cells with human PBMC (E:T 10:1, 96h, Calcein AM)” value [1] was 0.0003 nM, the “EC50 of killing of HEK293-ALPP cells with human PBMC (E:T 10:1, 72h, Calcein AM)” value (ALPP on HEK293 cells) was 0.0085 nM and the Kd [2] was 0.19 nM. It also gave a Kd (human ALPPL2-Fc [3]) of about 0.2 nM, a Kd (human CD3 epsilon [4]) of 20 nM and a Kd [5] of 2.4 nM. The binding result (human ALPI-Fc) was “no binding (tested: 100 nM)”, the Kd (human ALPPL2-Fc [6]) was 0.2 nM and the Kd (human CD3 epsilon [7]) was 25 nM. It also gave a Kd [8] of 4.35 nM and a Kd [9] of 18 nM.

B2: FYIA_germ_SY Fab (Fab, part only; not given: light variable domain, not tied by name, V domains shown, part only)
VH: EVQLVESGGGLVQPGGSLRLSCAASGFTFSAYAMHWVRQAPGKGLEWVAVISYEGYNAYYADSVKGRFTISRDNSKNTLYLQMNSLRAEDTAVYYCAKEGDYSRWAYDLWGRGTLVTVSS
B2 gave a Kd [10] of 1.27 nM.

B3: FYIA_germ Fab (Fab, V domains shown)
VH: B2 VH with A31S, E54D, Y56S, A58K, Y102S, A106S
VL: QSALTQPASVSGSPGQSITISCTGTSSDVGGYNYVSWYQQHPGKAPKLMIYDVTNRPSGVSNRFSGSKSGNTASLTISGLQAEDEADYYCSSYTIASTLVVFGGGTKLTVL
notes: Tested as monovalent Fab
B3 was tested, and the Kd [11] was 69.4 nM, the Kd (human ALPPL2-Fc [12]) was 13 nM and the binding result [13] was “no binding (tested: 10000 nM)”.

B4: FYIA_germopt Fab (Fab, V domains shown)
VH: B2 VH with L109Y
VL: B3 VL with R56Y, I95V, S97T
notes: Tested as monovalent Fab; also called SYLY
B4 was tested, and the Kd [11] was 0.967 nM, the “fold improvement over the parental FYIA” value [14] was over 30 fold and the Kd (human ALPPL2-Fc [12]) was 0.19 nM. B4: no binding (tested: 10000 nM) [13].

Reference: patent US20250145733A1 (University of California, published 2025)
